According to CN117700537A:

Target: 非洲马瘟病毒VP7重组蛋白 (AHSV VP7重组蛋白, 原核表达) (African horse sickness virus (非洲马瘟病毒))
Assay: indirect ELISA, negative control on coated VP7 recombinant protein (0.5 μg/mL)

## 阴性对照 (阴性抗体, 表2) (antibody)
  OD450: 0.0655 OD450
